How the values were obtained:
human airway epithelia [1] = test: Endotoxin responsiveness of primary human airway epithelia (HBD-2 mRNA real time PCR, NF-κB-luciferase); format: cell-based; conditions: IL-1β 100 ng/ml, 24 hr, real time PCR
Method: FIG. 6 depicts endotoxin responsiveness of well-differentiated primary cultures of human airway epithelia. Polarized epithelia were treated with NTHi LOS (100 ng/ml), sCD14 (100 ng/ml) and LBP (250 ng/ml) by apical application in a 50 μl volume. Twenty-four hours later, epithelia were harvested and analyzed for HBD-2 mRNA expression by real time PCR. As depicted in FIG. 6A, apical stimulation of airway epithelia with NTHi LOS induced little change in HBD-2 MRNA expression (2 epithelia/trial, n=3 different donors, * indicates p<0.05). In contrast, IL-1β markedly induces HBD-2 mRNA. FIG. 6B depicts the polarity of epithelial responses to IL-1β and NTHi LOS. […]
FIG. 9 depicts the effects of MD-2 complementation on endotoxin responsiveness in human airway epithelia. […] Fold increase in HBD-2 mRNA expression were quantified by real time PCR. […] NF-κB-luciferase activity was measured 24 hr following endotoxin treatment (n=5 epithelia/condition, * indicates p<0.05). […] 24 hr after endotoxin treatment, HBD-2 expression was quantified by real time PCR. […]
Well differentiated human airway epithelia were treated with N. meningitidis LOS-sCD14 (5 ng LOS/ml), with or without the addition of cell culture supernatants containing rMD-2. […] HBD-2 expression was quantified by real time PCR. […]
Real-time PCR was employed to detect human β-defensin-2 and MD-2 and to quantify changes in expression. […]

human airway epithelia [2] = test: MD-2 mRNA expression in human airway epithelia after stimuli (real time PCR); format: cell-based; conditions: 18–24 hr stimulation
Method: Fold increase in MD-2 mRNA expression was quantified using real time PCR. FIG. 10 represents the results from three independent experiments on three different epithelial preparations. * indicates p<0.05.
Real-time PCR was employed to detect human β-defensin-2 and MD-2 and to quantify changes in expression. Real-time quantitative PCR was performed using a sequence detector (ABI PRISM 7700, Applied Biosystems, Foster City, Calif.) and Taqman technology (Roche Molecular Diagnostic Systems) following the manufacturer's protocols (Bustin, 2000). The primers and probes were designed using the Primer Express program (Applied Biosystems). For MD-2, the primers were-forward5′-[…]-3′ (SEQ ID NO:11), reverse 5′-GCATTTCTTCTGGGCTCCC-3′ (SEQ ID NO:12), and probe 5′-[…]-3′ (SEQ ID NO:13). For HBD-2, the forward primer was-5′-[…]-3′ (SEQ ID NO:14), the reverse primer-5′-[…]-3′ (SEQ ID NO:15), and the probe was-5′-[…]-3′ (SEQ ID NO:16). Both probes contain a fluorescent reporter (6-Carboxyfluorescein [FAM]) at the 5′ end and a fluorescent quencher (6-Carboxytetramethylrhodamine [TAMRA]) at the 3′ end. As an internal control for normalization, human GAPDH real-time quantitative PCR was conducted in every reaction. The primers and probes were purchased from Roche Molecular Diagnostic Systems. The PCR fragments were amplified for 40 cycles (15 sec at 95° C. and 1 min at 60° C.). […]

MD-2 = test: Formation of [^14C]-LOS-MD-2 complex monitored by gel filtration chromatography; format: binding, human; conditions: 30 min, 37° C., Sephacryl S100
Method: In FIG. 2, a bioactive complex (Mr˜25,000) containing MD-2 and [^14C]-LOS is formed by incubation of [^14C]-LOS-sCD14 with wt, but not C95Y, MD-2. In FIG. 2A, dialyzed control insect cell medium (◯) or medium containing wt (♦) or C95Y ( ? ) MD-2 was incubated for 30 min, 37° C. with (1:1 vol/vol) [^14C]-LOS-sCD14 in HBSS+, 10 mM HEPES and chromatographed on Sephacryl S100. Column fractions were analyzed for [^14C]-LOS. Identical results were obtained in analytical (5 ng [^14C]-LOS/ml+200 μl culture medium) or more preparative runs (reagents concentrated 20×). […] Cell activation was measured by IL-8 accumulation. […]
(§1) Purified [^14C]-LOSagg or [^14C]-LOS-sCD14 (3 ng LOS/ml)+/−indicated proteins (30 ng/ml LBP, 250 ng/ml sCD14, 60 μl culture medium) were incubated at 37° C. for 30 min. After this incubation, samples were analyzed by gel filtration chromatography to monitor formation of [^14C]-LOS-MD-2 and by incubation with HEK/TLR4 cells to measure cell activation.
Columns of Sephacryl HR S200 (1.6 cm×30 cm) or S100 (1.0 cm×60 cm) were pre-equilibrated in 10 mM HEPES, HBSS^++/−0.1% HSA. […] Aliquots of the collected fractions were analyzed by liquid scintillation spectroscopy using a Beckman LS liquid scintillation counter to detect [^14C]-LOS. […]

TLR4 = biological target: T1, TLR4 (Homo sapiens, UniProt O00206+Q9Y6Y9); test: HEK cell activation assay: extracellular IL-8 by ELISA; format: cell-based
T1 construct: host or cells: HEK293 stably transfected with TLR4 (HEK/TLR4)
Source text: Conditioned insect cell culture medium containing soluble, polyhistidine-tagged recombinant wild-type (wt) or C95Y mutant MD-2 were generated according to the method of Viriyakosol et al. (2001). A human embryonic kidney cell line (HEK293) that stably expresses TLR4 (HEK/TLR4), but lacks both CD14 and MD-2 (Yang et al., 2000), was used to evaluate the effect of MD-2 on the ability of lipooligosaccharide (LOS) to interact with TLR4 and promote activation.
FIG. 1 depicts the expression and bioactivity of recombinant MD-2-His6. FIGS. 1A and 1B depict SDS-PAGE immunoblots of control culture medium (FIG. 1A, lane 1) or medium from HiFive cells infected with recombinant baculovirus encoding wt (FIG. 1A, lane 2; FIG. 1B, lanes 1–3) or C95Y MD-2 (FIG. 1B, lane 4). MD-2 was detected using anti-(His)4 antibody. All samples represent 1 μl of culture medium except B, lanes 2 and 3, which represent 0.3 and 0.1 μl and A, lane 3, which represents molecular weight markers. In FIG. 1C, HEK/TLR4 cells were incubated in HEPES-buffered HBSS+/0.1% albumin with [^14C]-LOSagg (3 ng/ml)+/−LBP (30 ng/ml) and/or (60 μl) culture medium containing wt MD-2 (MD-2) (open bars); LOSagg+LBP and sCD14 (250 ng/ml)+/−wt (closed bars) or C95Y “MD-2” (striped bars), or [^14C]-LOS-sCD14 (2 ng LOS/ml)+/−wt or C95Y “MD-2” (closed bars). After overnight incubation, extracellular IL-8 was assayed by ELISA. In FIG. 1D, HEK/TLR4 cells were incubated with increasing amounts of wt (▪) or C95Y (◯) MD-2+[^14C]-LOS-sCD14 (2 ng/ml) and cell activation measured. Results shown are from one experiment (duplicate samples) representative of four independent experiments.
In FIG. 2, a bioactive complex (Mr˜25,000) containing MD-2 and [^14C]-LOS is formed by incubation of [^14C]-LOS-sCD14 with wt, but not C95Y, MD-2. In FIG. 2A, dialyzed control insect cell medium (◯) or medium containing wt (♦) or C95Y ( ? ) MD-2 was incubated for 30 min, 37° C. with (1:1 vol/vol) [^14C]-LOS-sCD14 in HBSS+, 10 mM HEPES and chromatographed on Sephacryl S100. Column fractions were analyzed for [^14C]-LOS. Identical results were obtained in analytical (5 ng [^14C]-LOS/ml+200 μl culture medium) or more preparative runs (reagents concentrated 20×). In FIG. 2B, peak fractions (Mr˜25,000) from treatment of [^14C]-LOS-sCD14 with wt MD-2 (FIG. 2A) were re-chromatographed on S100 in HBSS+, 10 mM HEPES without HSA; recovery of [^14C]-LOS was >80%. In FIG. 2C, HEK (□) or HEK/TLR4 (▪) were incubated overnight with the indicated amounts of LOS added as purified Mr˜25,000 (LOS-MD-2) complex. Cell activation was measured by IL-8 accumulation. Results shown correspond to one experiment, in duplicate, representative of three similar experiments. FIGS. 2D and 2E depict adsorption and elution of bioactive Mr˜25,000 complex to HisBind resin. Peak fractions of the purified complex (FIG. 2B; 10 ng [^14C]-LOS) were dialyzed against PBS and incubated with HisBind resin (0.125 ml) for 1 hr at 25° C. and processed as described in Methods. Non-adsorbed (Flow-thru) and adsorbed material eluted with 200 mM imidazole were precipitated with trichloroacetic acid to concentrate sample for SDS-PAGE/immunoblot analysis. […]
as §1, with “activation. […]” for “activation.”

T1 sequence (O00206 24-839): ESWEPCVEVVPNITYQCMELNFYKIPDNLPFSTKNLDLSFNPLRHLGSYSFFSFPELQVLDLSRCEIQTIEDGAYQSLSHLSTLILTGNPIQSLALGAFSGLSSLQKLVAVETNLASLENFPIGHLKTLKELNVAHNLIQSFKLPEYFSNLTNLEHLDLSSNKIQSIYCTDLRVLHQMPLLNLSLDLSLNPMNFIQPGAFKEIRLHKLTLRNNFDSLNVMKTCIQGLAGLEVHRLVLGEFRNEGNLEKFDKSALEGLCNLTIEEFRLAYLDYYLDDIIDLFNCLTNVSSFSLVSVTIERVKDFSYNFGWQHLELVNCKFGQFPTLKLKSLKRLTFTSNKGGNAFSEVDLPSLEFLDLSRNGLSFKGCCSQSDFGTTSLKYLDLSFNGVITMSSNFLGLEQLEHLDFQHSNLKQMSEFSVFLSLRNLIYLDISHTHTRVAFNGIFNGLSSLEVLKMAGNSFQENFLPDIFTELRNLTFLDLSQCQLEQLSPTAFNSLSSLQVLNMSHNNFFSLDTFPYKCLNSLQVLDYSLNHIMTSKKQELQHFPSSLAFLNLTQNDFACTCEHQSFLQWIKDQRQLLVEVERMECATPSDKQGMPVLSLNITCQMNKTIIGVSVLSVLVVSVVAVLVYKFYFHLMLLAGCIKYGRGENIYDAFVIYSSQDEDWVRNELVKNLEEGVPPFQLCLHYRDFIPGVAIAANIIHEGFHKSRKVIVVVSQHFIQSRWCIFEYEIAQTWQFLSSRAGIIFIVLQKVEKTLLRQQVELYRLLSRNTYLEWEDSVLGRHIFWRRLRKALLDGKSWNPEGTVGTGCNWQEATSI
T1 sequence (Q9Y6Y9 19-160): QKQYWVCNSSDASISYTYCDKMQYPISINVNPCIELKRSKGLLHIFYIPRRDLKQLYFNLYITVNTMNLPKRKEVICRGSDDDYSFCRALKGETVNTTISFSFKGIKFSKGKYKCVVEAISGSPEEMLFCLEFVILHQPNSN

Molecule: IL-1β: human recombinant IL-1β, positive control [reference compound]
- increase in HBD-2 expression (human airway epithelia [1]): > 10,000 fold

Molecule: CCCCCCCCCCCCCC(=O)O[C@@H]1[C@@H](C)[C@@]2(O)[C@@H](C=C(CO)C[C@]3(O)C(=O)C(C)=C[C@@H]23)[C@@H]2C(C)(C)[C@]12OC(C)=O [phorbol myristate acetate, reference compound]
- steady state MD-2 mRNA levels (human airway epithelia [2]): induced

B1: C95Y MD-2 (protein)
chain: QKQYWVCNSSDASISYTYCDKMQYPISINVNPCIELKRSKGLLHIFYIPRRDLKQLYFNLYITVNTMNLPKRKEVIYRGSDDDYSFCRALKGETVNTTISFSFKGIKFSKGKYKCVVEAISGSPEEMLFCLEFVILHQPNSNHHHHHH
- reaction with [^14C]-LOS-sCD14 to generate new Mr˜25,000 [^14C]-LOS-containing complex (MD-2): no change
- activation of HEK/TLR4 cells by LOS-sCD14 (or LOSagg+LBP+sCD14) on addition of medium containing MD-2 (TLR4; IL-8 release, LOS-sCD14 2 ng LOS/ml): not seen
- inhibition of activation of HEK/TLR4 by [^14C]-LOS-MD-2 by added MD-2 (TLR4; [^14C]-LOS-MD-2 0.3 ng/ml, increasing amounts of conditioned medium): intermediate inhibitory effect

B2: P6: outer membrane protein P6 from non-typeable Haemophilus influenzae (protein, UniProt P10324 20-153, looked up)
Peptidoglycan-associated …: CSSSNNDAAGNGAAQTFGGYSVADLQQRYNTVYFGFDKYDITGEYVQILDAHAAYLNATPAAKVLVEGNTDERGTPEYNIALGQRRADAVKGYLAGKGVDAGKLGTVSYGEEKPAVLGHDEAAYSKNRRAVLAY
- steady state MD-2 mRNA levels (human airway epithelia [2]): marked increases
